The assay deals with Putative NADPH-quinone reductase. Description: SAXS.

As for “Putative NADPH-quinone reductase (natural protein)”, the fraction of dimer in the oligomer mixture stood at 47% and the fraction of tetramer in the oligomer mixture was 53%.

Source of the values: paper PMC3124082.
